Data from patent US20230242586A1, “RAS INHIBITORS AND USES THEREOF” (The Regents of the University of California, priority 2020, published 2023).
Ends that are not written are not given here.

Target: biotinylated wildtype K-Ras·GppNHp (His-Avi-TEV-KRAS (wildtype))
Experiment: TR-FRET K-Ras(wildtype) + Raf1-RBD
Conditions: chains peptide; modification not given; biotin on the Avi tag (co-expressed BirA)

IC50: > 100 µM
Binder: YFVNFRNFRTFRCG (also: cyclic, ring closure not given here) [KD2]
